Patent US20260083855A1 (Hoffmann-La Roche, published 2026)
Each block holds one binder with its values, some of them ahead of it.

Key:
Test in all cases: cell-based or functional assay
[1] = target: T1, human PD-1 on activated CD4 T cells (human, UniProt Q15116 25-288)
[2] = target: T2, IL-2R on human cells (activated CD4 T cells, PBMC subsets, NK92) (human, UniProt P14784 27-551; P31785 23-369)
T2 sequence (looked up) 1: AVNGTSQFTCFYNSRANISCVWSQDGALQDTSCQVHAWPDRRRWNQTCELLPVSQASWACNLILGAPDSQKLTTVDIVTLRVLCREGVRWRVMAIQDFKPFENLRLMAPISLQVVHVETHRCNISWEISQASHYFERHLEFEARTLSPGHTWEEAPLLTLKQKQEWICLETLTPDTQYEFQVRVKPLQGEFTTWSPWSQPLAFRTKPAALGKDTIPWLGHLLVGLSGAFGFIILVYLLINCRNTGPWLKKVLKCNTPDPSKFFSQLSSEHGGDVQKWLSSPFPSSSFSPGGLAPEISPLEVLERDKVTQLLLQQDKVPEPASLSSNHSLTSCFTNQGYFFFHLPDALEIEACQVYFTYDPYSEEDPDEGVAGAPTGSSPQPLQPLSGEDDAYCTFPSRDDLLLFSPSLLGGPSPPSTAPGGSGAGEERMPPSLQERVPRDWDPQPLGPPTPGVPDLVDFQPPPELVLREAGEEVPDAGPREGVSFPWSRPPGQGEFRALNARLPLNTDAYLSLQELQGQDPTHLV
T2 sequence (looked up) 2: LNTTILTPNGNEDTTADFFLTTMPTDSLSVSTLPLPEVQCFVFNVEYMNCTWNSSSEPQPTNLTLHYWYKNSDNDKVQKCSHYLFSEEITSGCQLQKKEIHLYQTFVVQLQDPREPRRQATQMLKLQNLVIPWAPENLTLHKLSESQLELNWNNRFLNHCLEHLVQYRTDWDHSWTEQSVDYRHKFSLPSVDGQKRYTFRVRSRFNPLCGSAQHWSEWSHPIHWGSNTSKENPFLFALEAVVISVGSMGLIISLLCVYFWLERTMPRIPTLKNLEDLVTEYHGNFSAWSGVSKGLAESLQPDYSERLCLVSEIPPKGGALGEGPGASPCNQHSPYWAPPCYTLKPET

[3] = target: T1, human PD-1 on activated CD4 T cells; remark: listed apart in the source
[4] = target: T3, human LAG-3 on activated CD4 T cells (human, UniProt P18627 23-525)
T3 sequence (looked up): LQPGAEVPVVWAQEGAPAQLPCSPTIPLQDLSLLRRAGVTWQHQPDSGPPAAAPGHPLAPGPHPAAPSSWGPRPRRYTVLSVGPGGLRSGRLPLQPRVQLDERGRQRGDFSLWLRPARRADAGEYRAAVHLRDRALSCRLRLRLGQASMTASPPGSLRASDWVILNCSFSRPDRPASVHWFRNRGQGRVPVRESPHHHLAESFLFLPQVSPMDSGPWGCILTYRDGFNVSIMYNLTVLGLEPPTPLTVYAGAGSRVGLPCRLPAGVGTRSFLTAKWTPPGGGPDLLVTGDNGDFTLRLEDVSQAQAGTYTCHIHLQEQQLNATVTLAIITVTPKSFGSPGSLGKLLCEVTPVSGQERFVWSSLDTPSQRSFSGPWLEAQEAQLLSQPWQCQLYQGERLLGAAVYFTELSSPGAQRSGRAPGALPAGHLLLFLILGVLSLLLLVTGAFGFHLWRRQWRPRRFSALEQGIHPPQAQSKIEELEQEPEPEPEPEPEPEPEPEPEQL

[5] = target: T2, IL-2R on human cells (activated CD4 T …); remark: listed apart in the source
[6] = target: T1, human PD-1 on activated CD4 T cells; remark: listed apart in the source
[7] = target: T3, human LAG-3 on activated CD4 T cells; remark: listed apart in the source

T1 sequence (Q15116 25-288 limits assumed): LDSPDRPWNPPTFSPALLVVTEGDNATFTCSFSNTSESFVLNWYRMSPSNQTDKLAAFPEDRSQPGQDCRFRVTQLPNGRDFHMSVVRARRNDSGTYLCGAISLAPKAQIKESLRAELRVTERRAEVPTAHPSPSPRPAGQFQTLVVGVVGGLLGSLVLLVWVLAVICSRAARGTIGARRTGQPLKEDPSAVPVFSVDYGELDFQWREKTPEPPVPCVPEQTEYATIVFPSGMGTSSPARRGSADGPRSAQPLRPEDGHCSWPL

Percentage of internalization (0.6 nM, activated CD4 T cells, 3 h at 37 C) [1]: 13.6%
B1: anti-PD1 IgG PG LALA (P1AA6888) (antibody, V domains shown)
VH: EVQLLESGGGLVQPGGSLRLSCAASGFSFSSYTMSWVRQAPGKGLEWVATISGGGRDIYYPDSVKGRFTISRDNSKNTLYLQMNSLRAEDTAVYYCVLLTGRVYFALDSWGQGTLVTVSS
VL: DIVMTQSPDSLAVSLGERATINCKASESVDTSDNSFIHWYQQKPGQSPKLLIYRSSTLESGVPDRFSGSGSGTDFTLTISSLQAEDVAVYYCQQNYDVPWTFGQGTKVEIKR

Percentage of internalization (0.6 nM, activated CD4 T cells, 3 h at 37 C) [2]: 25.7%
STAT5-P potency on PD-1+, LAG-3+ T cells against PD1-IL2v [3]: 127 fold
STAT5-P potency on PD-1+, LAG-3+ T cells against PD1-IL2v [4]: 127 fold
Potency reduction vs PD1-IL2v on PD-1+ LAG-3+ T cells [5]: 0.00787 fold
Cis-delivery: fold increase in EC50, EC50 [PD1/LAG-3 bl.]/EC50 [PD1+/LAG-3+] [6]: 1110 fold
Cis-delivery: fold increase in EC50, EC50 [PD1/LAG-3 bl.]/EC50 [PD1+/LAG-3+] [7]: 1110 fold
B2: PD1-LAG3-IL2v (P1AF4801) (bispecific antibody, human IgG1, kappa, L234A L235A)
light 1: EVQLLESGGGLVQPGGSLRLSCAASGFSFSSYTMSWVRQAPGKGLEWVATISGGGRDIYYPDSVKGRFTISRDNSKNTLYLQMNSLRAEDTAVYYCVLLTGRVYFALDSWGQGTLVTVSSASVAAPSVFIFPPSDEQLKSGTASVVCLLNNFYPREAKVQWKVDNALQSGNSQESVTEQDSKDSTYSLSSTLTLSKADYEKHKVYACEVTHQGLSSPVTKSFNRGEC
light 2: not shown
heavy 1: EVQLLESGGGLVQPGGSLRLSCAASGFIFDDYTMNWVRQAPGKGLEWVAVISWDGGGTYYTDSVKGRFTISRDDFKNTLYLQMNSLRAEDTAVYYCAKGLTDTTLYGSDYWGQGTLVTVSSASTKGPSVFPLAPSSKSTSGGTAALGCLVEDYFPEPVTVSWNSGALTSGVHTFPAVLQSSGLYSLSSVVTVPSSSLGTQTYICNVNHKPSNTKVDEKVEPKSCDKTHTCPPCPAPEAAGGPSVFLFPPKPKDTLMISRTPEVTCVVVDVSHEDPEVKFNWYVDGVEVHNAKTKPREEQYNSTYRVVSVLTVLHQDWLNGKEYKCKVSNKALGAPIEKTISKAKGQPREPQVCTLPPSRDELTKNQVSLSCAVKGFYPSDIAVEWESNGQPENNYKTTPPVLDSDGSFFLVSKLTVDKSRWQQGNVFSCSVMHEALHNHYTQKSLSLSPGK
heavy 2: not shown

Percentage of internalization (0.6 nM, activated CD4 T cells, 3 h at 37 C) [2]: 28.1%
STAT5-P potency on PD-1+, LAG-3+ T cells against PD1-IL2v [3]: 6.5 fold
STAT5-P potency on PD-1+, LAG-3+ T cells against PD1-IL2v [4]: 6.5 fold
Potency reduction vs PD1-IL2v on PD-1+ LAG-3+ T cells [5]: 0.154 fold
Cis-delivery: fold increase in EC50, EC50 [PD1/LAG-3 bl.]/EC50 [PD1+/LAG-3+] [6]: 485 fold
Cis-delivery: fold increase in EC50, EC50 [PD1/LAG-3 bl.]/EC50 [PD1+/LAG-3+] [7]: 485 fold
B3: PD1-LAG3-IL2v Q126T (P1AF7951) (bispecific antibody, human IgG1, kappa, L234A L235A)
light 1: B2 light 1
light 2: not shown
heavy 1: B2 heavy 1
heavy 2: not shown
